Ten variants from paper PMC11257983 (2024) can be followed below.

To fix the notation:
B1: Flag-CNK^2–549 [Drosophila] / Myc-MEK [Drosophila] (parent)
chain 1: MSKNKLNLVLPPVNTEATVAAATVAPTPPFKTPSGTDTHSLLGKPKTSIDALTETLEGLDMGDTERKRIKMFLSQKEKIGELSDEDLEKLGELGSGNGGVVMKVRHTHTHLIMARKLIHLEVKPAIKKQILRELKVLHECNFPHIVGFYGAFYSDGEISICMEYMDGGSLDLILKRAGRIPESILGRITLAVLKGLSYLRDNHAIIHRDVKPSNILVNSSGEIKICDFGVSGQLIDSMANSFVGTRSYMSPERLQGTHYSVQSDIWSLGLSLVEMAIGMYPIPPPNTATLESIFADNAEESGQPTDEPRAMAIFELLDYIVNEPPPKLEHKIFSTEFKDFVDICLKKQPDERADLKTLLSHPWIRKAELEEVDISGWVCKTMDLPPSTPKRNTSPN
chain 2: AYINIAEWTPDQVTDWIKGLDESMKGYLYEFSKQEIGGRALLNIRPYELENLGMLRIGHQEIVLEAVENLRNFHYHLKNDNLQFMALHVATAAKNLHRELARNHAESTKIDTRILHDITRTIATLKPLVGSLERTPFRKQEMYREYCGNVLKCGLELATIAHRDRFALQPVPAIRQSAERLENLANFVIQDISDPMVLQPASLNLVTLKKRESELGFNIESSYNGIHRVTDIKYNSPAHNSGKIEDGDEIVQINYQTVVGWQHRTVLEHLREALPDVVLTVKKRPKHTKMFGQIYMQPYRLPSKKRNMAARWAAQMPSPRAAFLTLDTEQLATGGTGSAVPDPSKSLSSEKREVLTKANPVSSASDSDSSCSDIPTPTDPKLAAREIRLYYPKPRALLQRRNTICGCEYLSLKNSDLVVPSWHERKPGIGSPTNCDPGSPSIRDKSISFGYGLEMAARPTTCIGIAGDTSTDKARRMFHEARKLKQLTEDSQREFLVDRYKPGVSKVVRFDAKEDYVMKNEKFICNVENTILETFEPIPFADEGDEDA

Variants of B1 are the subject of the first assay. The experiment in a line: GST pull-down, immunoblot quantification. Conditions: with Myc-MEK [Drosophila]; S2 cells; GST-HYP + RRKM co-expressed; captured via GST-HYP; anti-Myc (MEK) blot; parent: 1.
Regarding chain 2 AYINIAEWTPDQVTDWIKGLDESMKGYLYEFSKQEIGGRALLNIRPYELENLGMLRIGHQEIVLEAVENLRNRHYHLKNDNLQFMALHVATAAKNLHRELARNHAESTKIDTRILHDITRTIATLKPLVGSLERTPFRKQEMYREYCGNVLKCGLELATIAHRDRFALQPVPAIRQSAERLENLANFVIQDISDPMVLQPASLNLVTLKKRESELGFNIESSYNGIHRVTDIKYNSPAHNSGKIEDGDRIVQINYQTVVGWQHRTVLEHLREALPDVVLTVKKRPKHTKMFGQIYMQPYRLPSKKRNMAARWAAQMPSPRAAFLTLDTEQLATGGTGSAVPDPSKSLSSEKREVLTKANPVSSASDSDSSCSDIPTPTDPKLAAREIRLYYPKPRALLQRRNTICGCEYLSLKNSDLVVPSWHERKPGIGSPTNCDPGSPSIRDKSISFGYGLEMAARPTTCIGIAGDTSTDKARRMFHEARKLKQLTEDSQREFLVDRYKPGVSKVVRFDAKEDYVMKNEKFICNVENTILETFEPIPFADEGDEDA [chain 2 F73R E249R], the ratio to parent is 0.13. With chain 2 AYINIAEWTPDQVTDWIKGLDESMKGYLYEFSKQEIGGRALLNIRPYELENLGMLRIGHQEIVLEAVENLRNFHYHLKNDNLQFMALHVATAAKNLHRELARNHAESTKIDTRILHDITRTIATLKPLVGSLERTPFRKQEMYREYCGNVLKCGLELATIAHRDRFALQPVPAIRQSAERLENLANFVIQDISDPMVLQPASLNLVTLKKRESELGFNIESSYNGIHRVTDIKYNSPAHNSGKIEDGDRIRQINYQTVVGWQHRTVLEHLREALPDVVLTVKKRPKHTKMFGQIYMQPYRLPSKKRNMAARWAAQMPSPRAAFLTLDTEQLATGGTGSAVPDPSKSLSSEKREVLTKANPVSSASDSDSSCSDIPTPTDPKLAAREIRLYYPKPRALLQRRNTICGCEYLSLKNSDLVVPSWHERKPGIGSPTNCDPGSPSIRDKSISFGYGLEMAARPTTCIGIAGDTSTDKARRMFHEARKLKQLTEDSQREFLVDRYKPGVSKVVRFDAKEDYVMKNEKFICNVENTILETFEPIPFADEGDEDA [chain 2 E249R V251R], the ratio to parent was 0.06. As for chain 2 AYINIAEWTPDQVTDWIKGLDESMKGYLYEFSKQEIGGRALLNIRPYELENLGMLRIGHQEIVLEAVENLRNRHYHLKNDNLQFMALHVATAAKNLHRELARNHAESTKIDTRILHDITRTIATLKPLVGSLERTPFRKQEMYREYCGNVLKCGLELATIAHRDRFALQPVPAIRQSAERLENLANFVIQDISDPMVLQPASLNLVTLKKRESELGFNIESSYNGIHRVTDIKYNSPAHNSGKIEDGDEIVQINYQTVVGWQHRTVLEHLREALPDVVLTVKKRPKHTKMFGQIYMQPYRLPSKKRNMAARWAAQMPSPRAAFLTLDTEQLATGGTGSAVPDPSKSLSSEKREVLTKANPVSSASDSDSSCSDIPTPTDPKLAAREIRLYYPKPRALLQRRNTICGCEYLSLKNSDLVVPSWHERKPGIGSPTNCDPGSPSIRDKSISFGYGLEMAARPTTCIGIAGDTSTDKARRMFHEARKLKQLTEDSQREFLVDRYKPGVSKVVRFDAKEDYVMKNEKFICNVENTILETFEPIPFADEGDEDA [chain 2 F73R], the ratio to parent worked out at 0.82. With chain 2 AYINIAEWTPDQVTDWIKGLDESMKGYLYEFSKQEIGGRALLNIRPYELENLGMLRIGHQEIVLEAVENLRNFHYHLKNDNLQFMALHVATAAKNLHRELARNHAESTKIDTRILHDITRTIATLKPLVGSLERTPFRKQEMYREYCGNVLKCGLELATIAHRDRFALQPVPAIRQSAERLENLANFVIQDISDPMVLQPASLNLVTLKKRESELGFNIESSYNGIHRVTDIKYNSPAHNSGKIEDGDEIVQINYQTVVGWQHRTVLEHLREALPDVVLTVDKRPKHTKMFGQIYMQPYRLPSKKRNMAARWAAQMPSPRAAFLTLDTEQLATGGTGSAVPDPSKSLSSEKREVLTKANPVSSASDSDSSCSDIPTPTDPKLAAREIRLYYPKPRALLQRRNTICGCEYLSLKNSDLVVPSWHERKPGIGSPTNCDPGSPSIRDKSISFGYGLEMAARPTTCIGIAGDTSTDKARRMFHEARKLKQLTEDSQREFLVDRYKPGVSKVVRFDAKEDYVMKNEKFICNVENTILETFEPIPFADEGDEDA [chain 2 K282D], the ratio to parent is 0.1. With chain 2 AYINIAEWTPDQVTDWIKGLDESMKGYLYEFSKQEIGGRALLNIRPYELENLGMLRIGHQEIVLEAVENLRNRHYHLKNDNLQFMALHVATAAKNLHRELARNHAESTKIDTRILHDITRTIATLKPLVGSLERTPFRKQEMYREYCGNVLKCGLELATIAHRDRFALQPVPAIRQSAERLENLANFVIQDISDPMVLQPASLNLVTLKKRESELGFNIESSYNGIHRVTDIKYNSPAHNSGKIEDGDEIRQINYQTVVGWQHRTVLEHLREALPDVVLTVKKRPKHTKMFGQIYMQPYRLPSKKRNMAARWAAQMPSPRAAFLTLDTEQLATGGTGSAVPDPSKSLSSEKREVLTKANPVSSASDSDSSCSDIPTPTDPKLAAREIRLYYPKPRALLQRRNTICGCEYLSLKNSDLVVPSWHERKPGIGSPTNCDPGSPSIRDKSISFGYGLEMAARPTTCIGIAGDTSTDKARRMFHEARKLKQLTEDSQREFLVDRYKPGVSKVVRFDAKEDYVMKNEKFICNVENTILETFEPIPFADEGDEDA [chain 2 F73R V251R], the ratio to parent was found to be 0.5. On the same count and under the same terms, the figure for chain 2 AYINIAEWTPDQVTDWIKGLDESMKGYLYEFSKQEIGGRALLNIRPYELENLGMLRIGHQEIVLEAVENLRNFHYHLKNDNLQFMALHVATAAKNLHRELARNHAESTKIDTRILHDITRTIATLKPLVGSLERTPFRKQEMYREYCGNVLKCGLELATIAHRDRFALQPVPAIRQSAERLENLANFVIQDISDPMVLQPASLNLVTLKKRESELGFNIESSYNGIHRVTDIKYNSPAHNSGKIEDGDEIRQINYQTVVGWQHRTVLEHLREALPDVVLTVKKRPKHTKMFGQIYMQPYRLPSKKRNMAARWAAQMPSPRAAFLTLDTEQLATGGTGSAVPDPSKSLSSEKREVLTKANPVSSASDSDSSCSDIPTPTDPKLAAREIRLYYPKPRALLQRRNTICGCEYLSLKNSDLVVPSWHERKPGIGSPTNCDPGSPSIRDKSISFGYGLEMAARPTTCIGIAGDTSTDKARRMFHEARKLKQLTEDSQREFLVDRYKPGVSKVVRFDAKEDYVMKNEKFICNVENTILETFEPIPFADEGDEDA [chain 2 V251R] is 0.78.

Staying with this assay, now noted: with Myc-MEK [Drosophila]; S2 cells; GST-HYP, Flag-CNK2–549 + RRKM co-expressed; captured via GST-HYP; anti-Myc (MEK) blot; parent: 1.
In the case of chain 2 AYINIAEWTPDQVTDWIKGLDESMKGYLYEFSKQEIGGRALLNIRPYELENLGMLRIGHQEIVLEAVENLRNFHYHLKNDNLQFMALHVATAAKNLHRELARNHAESTKIDTRILHDITRTDATLKPLVGSLERTPFRKQEMYREYCGNVLKCGLELATIAHRDRFALQPVPAIRQSAERLENLANFVIQDISDPMVLQPASLNLVTLKKRESELGFNIESSYNGIHRVTDIKYNSPAHNSGKIEDGDEIVQINYQTVVGWQHRTVLEHLREALPDVVLTVKKRPKHTKMFGQIYMQPYRLPSKKRNMAARWAAQMPSPRAAFLTLDTEQLATGGTGSAVPDPSKSLSSEKREVLTKANPVSSASDSDSSCSDIPTPTDPKLAAREIRLYYPKPRALLQRRNTICGCEYLSLKNSDLVVPSWHERKPGIGSPTNCDPGSPSIRDKSISFGYGLEMAARPTTCIGIAGDTSTDKARRMFHEARKLKQLTEDSQREFLVDRYKPGVSKVVRFDAKEDYVMKNEKFICNVENTILETFEPIPFADEGDEDA [chain 2 I122D], the ratio to parent was 0.77. chain 2 AYINIAEWTPDQVTDWIKGLDESMKGYLYEFSKQEIGGRALLNIRPYELENLGMLRIGHQEIVLEAVENLRNFHYHLKNDNLQFMALHVATAAKNLHRELARNHAESTKIDTRILHDITRTDATLKPLVGSLERTPFRKQEMYREYCGNVDKCGLELATIAHRDRFALQPVPAIRQSAERLENLANFVIQDISDPMVLQPASLNLVTLKKRESELGFNIESSYNGIHRVTDIKYNSPAHNSGKIEDGDEIVQINYQTVVGWQHRTVLEHLREALPDVVLTVKKRPKHTKMFGQIYMQPYRLPSKKRNMAARWAAQMPSPRAAFLTLDTEQLATGGTGSAVPDPSKSLSSEKREVLTKANPVSSASDSDSSCSDIPTPTDPKLAAREIRLYYPKPRALLQRRNTICGCEYLSLKNSDLVVPSWHERKPGIGSPTNCDPGSPSIRDKSISFGYGLEMAARPTTCIGIAGDTSTDKARRMFHEARKLKQLTEDSQREFLVDRYKPGVSKVVRFDAKEDYVMKNEKFICNVENTILETFEPIPFADEGDEDA [chain 2 I122D L151D]: the ratio to parent amounted to 0.01. chain 2 AYINIAEWTPDQVTDWIKGLDESMKGYLYEFSKQEIGGRALLNIRPYELENLGMLRIGHQEIVLEAVENLRNFHYHLKNDNLQFMALHVATAAKNLHRELARNHAESTKIDTRILHDITRTIATLKPLVGSLERTPFRKQEMYREYCGNVDKCGLELATIAHRDRFALQPVPAIRQSAERLENLANFVIQDISDPMVLQPASLNLVTLKKRESELGFNIESSYNGIHRVTDIKYNSPAHNSGKIEDGDEIVQINYQTVVGWQHRTVLEHLREALPDVVLTVKKRPKHTKMFGQIYMQPYRLPSKKRNMAARWAAQMPSPRAAFLTLDTEQLATGGTGSAVPDPSKSLSSEKREVLTKANPVSSASDSDSSCSDIPTPTDPKLAAREIRLYYPKPRALLQRRNTICGCEYLSLKNSDLVVPSWHERKPGIGSPTNCDPGSPSIRDKSISFGYGLEMAARPTTCIGIAGDTSTDKARRMFHEARKLKQLTEDSQREFLVDRYKPGVSKVVRFDAKEDYVMKNEKFICNVENTILETFEPIPFADEGDEDA [chain 2 L151D]: the ratio to parent was determined as 0.05.

Still in this assay, the particulars now being: with Myc-MEK [Drosophila]; S2 cells; GST-HYP, V5-KSR, Myc-MEK co-expressed; captured via GST-HYP; anti-MEK blot; parent: 1.
With chain 2 AYINIAEWTPDQVTDWIKGLDESMKGYLYEFSKQEIGGRALLNIRPYELENLGMLRIGHQEIVLEAVENLRNFHYHLKNDNLQFMALHVATAAKNLHRELARNHAESTKIDTRILHDITRTIATLKPLVGSLERTPFRKQEMYREYCGNVLKCGLELATIAHRDRFALQPVPAIRQSAERLENLANFVIQDISKPMELQPASLNLVTLKKRESELGFNIESSYNGIHRVTDIKYNSPAHNSGKIEDGDEIVQINYQTVVGWQHRTVLEHLREALPDVVLTVKKRPKHTKMFGQIYMQPYRLPSKKRNMAARWAAQMPSPRAAFLTLDTEQLATGGTGSAVPDPSKSLSSEKREVLTKANPVSSASDSDSSCSDIPTPTDPKLAAREIRLYYPKPRALLQRRNTICGCEYLSLKNSDLVVPSWHERKPGIGSPTNCDPGSPSIRDKSISFGYGLEMAARPTTCIGIAGDTSTDKARRMFHEARKLKQLTEDSQREFLVDRYKPGVSKVVRFDAKEDYVMKNEKFICNVENTILETFEPIPFADEGDEDA [chain 2 D194K V197E], the ratio to parent is 0.02.
